The text below walks through data of publication PMC3135484 (Molecular Biology of the Cell, 2011).

First the molecules themselves.
T1: Vps18 (individual HOPS subunit, TAP-purified) (yeast (S. cerevisiae), UniProt P27801 1-918)
T1 sequence: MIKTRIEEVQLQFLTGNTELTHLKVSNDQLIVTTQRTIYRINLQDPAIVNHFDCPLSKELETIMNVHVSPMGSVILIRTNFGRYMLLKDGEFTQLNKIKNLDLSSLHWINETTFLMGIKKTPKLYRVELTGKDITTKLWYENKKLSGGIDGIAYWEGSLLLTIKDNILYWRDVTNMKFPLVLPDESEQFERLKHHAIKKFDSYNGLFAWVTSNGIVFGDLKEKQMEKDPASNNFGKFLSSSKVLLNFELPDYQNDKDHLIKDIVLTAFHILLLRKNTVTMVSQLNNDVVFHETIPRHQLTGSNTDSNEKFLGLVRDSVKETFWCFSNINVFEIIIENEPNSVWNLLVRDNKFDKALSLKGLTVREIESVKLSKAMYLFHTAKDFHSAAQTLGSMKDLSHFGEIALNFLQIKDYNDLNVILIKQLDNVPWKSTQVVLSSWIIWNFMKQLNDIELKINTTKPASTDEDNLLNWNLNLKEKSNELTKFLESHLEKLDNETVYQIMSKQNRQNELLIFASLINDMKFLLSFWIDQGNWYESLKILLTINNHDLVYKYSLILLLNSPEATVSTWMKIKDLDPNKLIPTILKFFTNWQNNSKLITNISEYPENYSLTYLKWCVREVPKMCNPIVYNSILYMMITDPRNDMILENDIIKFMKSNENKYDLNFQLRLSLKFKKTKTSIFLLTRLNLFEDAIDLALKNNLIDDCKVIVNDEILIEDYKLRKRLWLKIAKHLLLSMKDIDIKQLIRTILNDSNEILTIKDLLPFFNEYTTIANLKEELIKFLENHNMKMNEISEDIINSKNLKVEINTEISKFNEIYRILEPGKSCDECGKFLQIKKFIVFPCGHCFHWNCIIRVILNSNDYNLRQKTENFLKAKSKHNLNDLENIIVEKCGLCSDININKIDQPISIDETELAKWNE

T2: Vps16 (individual HOPS subunit, TAP-purified) (yeast (S. cerevisiae), UniProt Q03308 1-798)
T2 sequence: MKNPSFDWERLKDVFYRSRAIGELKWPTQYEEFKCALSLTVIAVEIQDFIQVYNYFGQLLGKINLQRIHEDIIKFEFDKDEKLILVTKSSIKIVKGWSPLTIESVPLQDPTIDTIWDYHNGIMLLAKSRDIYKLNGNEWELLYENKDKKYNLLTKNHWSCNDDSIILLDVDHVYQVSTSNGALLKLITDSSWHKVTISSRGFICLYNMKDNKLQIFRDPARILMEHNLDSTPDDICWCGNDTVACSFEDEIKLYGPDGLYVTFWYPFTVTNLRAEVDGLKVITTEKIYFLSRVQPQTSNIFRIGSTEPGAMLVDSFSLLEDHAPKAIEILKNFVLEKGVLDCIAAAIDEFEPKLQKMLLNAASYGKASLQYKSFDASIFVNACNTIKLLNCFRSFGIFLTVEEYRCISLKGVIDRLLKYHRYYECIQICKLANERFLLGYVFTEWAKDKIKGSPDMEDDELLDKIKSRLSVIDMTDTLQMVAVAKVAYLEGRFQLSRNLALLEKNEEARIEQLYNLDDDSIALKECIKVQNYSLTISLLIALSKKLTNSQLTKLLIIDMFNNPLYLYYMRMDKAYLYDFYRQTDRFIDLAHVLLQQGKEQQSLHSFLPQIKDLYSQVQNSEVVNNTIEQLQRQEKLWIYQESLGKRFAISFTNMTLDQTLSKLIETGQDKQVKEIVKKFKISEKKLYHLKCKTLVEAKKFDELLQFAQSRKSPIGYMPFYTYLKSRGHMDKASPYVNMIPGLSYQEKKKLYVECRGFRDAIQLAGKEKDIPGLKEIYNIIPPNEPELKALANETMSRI

T3: Vps33 (individual HOPS subunit, Sec1/Munc18 protein, TAP-purified) (yeast (S. cerevisiae), UniProt P20795 1-691)
T3 sequence: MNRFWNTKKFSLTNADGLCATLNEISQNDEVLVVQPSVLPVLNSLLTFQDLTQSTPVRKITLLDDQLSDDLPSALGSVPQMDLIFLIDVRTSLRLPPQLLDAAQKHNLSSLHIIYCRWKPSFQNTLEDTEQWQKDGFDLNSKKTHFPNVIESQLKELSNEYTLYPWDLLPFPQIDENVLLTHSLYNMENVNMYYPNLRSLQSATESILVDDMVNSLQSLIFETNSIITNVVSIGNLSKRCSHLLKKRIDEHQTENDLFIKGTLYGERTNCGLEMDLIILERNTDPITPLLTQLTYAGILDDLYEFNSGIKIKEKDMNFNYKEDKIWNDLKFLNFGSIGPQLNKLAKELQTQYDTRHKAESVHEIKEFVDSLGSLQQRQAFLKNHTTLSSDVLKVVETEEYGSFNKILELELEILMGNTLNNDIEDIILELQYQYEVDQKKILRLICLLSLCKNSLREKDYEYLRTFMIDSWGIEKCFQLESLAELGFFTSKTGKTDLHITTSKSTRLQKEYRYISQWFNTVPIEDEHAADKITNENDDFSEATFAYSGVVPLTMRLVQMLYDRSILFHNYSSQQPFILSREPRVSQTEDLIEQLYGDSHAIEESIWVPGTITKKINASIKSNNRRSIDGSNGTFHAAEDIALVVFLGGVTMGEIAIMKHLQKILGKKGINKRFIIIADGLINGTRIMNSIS

T4: His-tagged Ykt6 (1-200) (S. cerevisiae, UniProt P36015 1-200)
T4 sequence: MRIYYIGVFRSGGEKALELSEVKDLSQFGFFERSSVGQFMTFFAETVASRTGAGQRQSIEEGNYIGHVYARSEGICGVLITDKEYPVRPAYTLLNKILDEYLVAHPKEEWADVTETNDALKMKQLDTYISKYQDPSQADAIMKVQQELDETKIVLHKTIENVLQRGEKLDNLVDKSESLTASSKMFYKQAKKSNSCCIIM

T5: His-tagged Vam3 (1-264, ΔTMD) (S. cerevisiae, UniProt Q12241 1-264)
T5 sequence: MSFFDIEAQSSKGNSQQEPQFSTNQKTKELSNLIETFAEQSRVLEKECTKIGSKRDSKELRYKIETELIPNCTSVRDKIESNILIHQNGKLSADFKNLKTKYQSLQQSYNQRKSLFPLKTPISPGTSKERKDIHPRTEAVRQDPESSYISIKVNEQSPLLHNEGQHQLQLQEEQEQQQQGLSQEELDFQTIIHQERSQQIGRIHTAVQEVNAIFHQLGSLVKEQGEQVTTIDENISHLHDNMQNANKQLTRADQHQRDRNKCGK

B1: minimal Q-SNARE complex (GST-Vam7 SD, Vam3ΔN and Vti1) (complex)
chain 1: PSTEVTRRAALLRSLLKECDDIGTANIAQDRGRLLGVATSDNSSTTEVQGRTNNDLQQGQMQMVRDQEQELVALHRIIQAQRGLALEMNEELQTQNELLTALEDDVDNTGRRLQIANKKARHFNNSA
chain 2: ESSYISIKVNEQSPLLHNEGQHQLQLQEEQEQQQQGLSQEELDFQTIIHQERSQQIGRIHTAVQEVNAIFHQLGSLVKEQGEQVTTIDENISHLHDNMQNANKQLTRADQHQRDRNKCGK
chain 3: MSSLLISYESDFKTTLEQAKASLAEAPSQPLSQRNTTLKHVEQQQDELFDLLDQMDVEVNNSIGDASERATYKAKLREWKKTIQSDIKRPLQSLVDSGDRDRLFGDLNASNIDDDQRQQLLSNHAILQKSGDRLKDASRIANETEGIGSQIMMDLRSQRETLENARQTLFQADSYVDKSIKTLKTMTRR
B2: His-tagged Vam3ΔN (145-264, lacking the Habc domain and the TMD) (domain or fragment)
chain: B1 chain 2
B3: GST-tagged Vam7 SNARE domain (190-316) (domain or fragment)
chain: B1 chain 1

Assay in all cases: pull-down
Experiment [1] concerns the target T1, Vps18 (individual HOPS subunit, …).
Experiment [2] addresses HOPS (homotypic fusion and protein sorting) complex (yeast (S. cerevisiae), UniProt P38959;Q07468;P20795;P12868;Q03308;P27801).
Experiment [3] deals with T2, Vps16 (individual HOPS subunit, …).
The target in experiment [4] is T3, Vps33 (individual HOPS subunit, …).
Experiment [5] deals with B3.
A further experiment addresses T4, His-tagged Ykt6 (1-200).
The target of experiment [6] is His-tagged Vti1 (1-189, ΔTMD) (S. cerevisiae, UniProt Q04338 1-189).
For experiment [7], the target named is T5, His-tagged Vam3 (1-264, ΔTMD).

HOPS (homotypic fusion and protein sorting) complex, sequence (P38959 whole entry, chain 1 of 3, the tested form may be a part): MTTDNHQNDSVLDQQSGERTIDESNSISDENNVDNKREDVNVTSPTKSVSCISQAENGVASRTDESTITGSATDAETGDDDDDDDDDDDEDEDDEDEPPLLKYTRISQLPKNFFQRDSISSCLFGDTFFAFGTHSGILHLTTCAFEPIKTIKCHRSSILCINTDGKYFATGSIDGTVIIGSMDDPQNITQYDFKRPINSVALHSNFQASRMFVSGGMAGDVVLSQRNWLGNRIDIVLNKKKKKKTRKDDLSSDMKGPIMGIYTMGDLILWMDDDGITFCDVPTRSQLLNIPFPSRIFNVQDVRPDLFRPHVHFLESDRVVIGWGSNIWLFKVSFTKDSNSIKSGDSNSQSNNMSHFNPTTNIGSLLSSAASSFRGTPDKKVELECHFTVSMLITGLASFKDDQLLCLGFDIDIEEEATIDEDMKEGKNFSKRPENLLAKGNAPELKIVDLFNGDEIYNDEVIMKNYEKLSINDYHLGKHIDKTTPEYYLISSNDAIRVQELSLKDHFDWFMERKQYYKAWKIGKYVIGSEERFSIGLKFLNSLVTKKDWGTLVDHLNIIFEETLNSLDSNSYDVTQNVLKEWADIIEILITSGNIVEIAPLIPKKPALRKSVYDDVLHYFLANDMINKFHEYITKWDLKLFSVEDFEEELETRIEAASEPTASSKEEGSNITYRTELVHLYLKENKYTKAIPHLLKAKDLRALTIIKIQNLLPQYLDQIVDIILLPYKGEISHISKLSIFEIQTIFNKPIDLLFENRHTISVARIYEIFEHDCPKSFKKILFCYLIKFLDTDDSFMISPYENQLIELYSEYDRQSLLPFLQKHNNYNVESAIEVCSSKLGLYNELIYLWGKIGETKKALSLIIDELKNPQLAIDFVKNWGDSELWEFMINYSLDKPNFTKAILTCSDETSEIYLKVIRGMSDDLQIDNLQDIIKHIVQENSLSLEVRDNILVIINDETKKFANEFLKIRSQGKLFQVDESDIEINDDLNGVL
HOPS (homotypic fusion and protein sorting) complex, sequence (Q07468 whole entry, chain 2 of 3, the tested form may be a part): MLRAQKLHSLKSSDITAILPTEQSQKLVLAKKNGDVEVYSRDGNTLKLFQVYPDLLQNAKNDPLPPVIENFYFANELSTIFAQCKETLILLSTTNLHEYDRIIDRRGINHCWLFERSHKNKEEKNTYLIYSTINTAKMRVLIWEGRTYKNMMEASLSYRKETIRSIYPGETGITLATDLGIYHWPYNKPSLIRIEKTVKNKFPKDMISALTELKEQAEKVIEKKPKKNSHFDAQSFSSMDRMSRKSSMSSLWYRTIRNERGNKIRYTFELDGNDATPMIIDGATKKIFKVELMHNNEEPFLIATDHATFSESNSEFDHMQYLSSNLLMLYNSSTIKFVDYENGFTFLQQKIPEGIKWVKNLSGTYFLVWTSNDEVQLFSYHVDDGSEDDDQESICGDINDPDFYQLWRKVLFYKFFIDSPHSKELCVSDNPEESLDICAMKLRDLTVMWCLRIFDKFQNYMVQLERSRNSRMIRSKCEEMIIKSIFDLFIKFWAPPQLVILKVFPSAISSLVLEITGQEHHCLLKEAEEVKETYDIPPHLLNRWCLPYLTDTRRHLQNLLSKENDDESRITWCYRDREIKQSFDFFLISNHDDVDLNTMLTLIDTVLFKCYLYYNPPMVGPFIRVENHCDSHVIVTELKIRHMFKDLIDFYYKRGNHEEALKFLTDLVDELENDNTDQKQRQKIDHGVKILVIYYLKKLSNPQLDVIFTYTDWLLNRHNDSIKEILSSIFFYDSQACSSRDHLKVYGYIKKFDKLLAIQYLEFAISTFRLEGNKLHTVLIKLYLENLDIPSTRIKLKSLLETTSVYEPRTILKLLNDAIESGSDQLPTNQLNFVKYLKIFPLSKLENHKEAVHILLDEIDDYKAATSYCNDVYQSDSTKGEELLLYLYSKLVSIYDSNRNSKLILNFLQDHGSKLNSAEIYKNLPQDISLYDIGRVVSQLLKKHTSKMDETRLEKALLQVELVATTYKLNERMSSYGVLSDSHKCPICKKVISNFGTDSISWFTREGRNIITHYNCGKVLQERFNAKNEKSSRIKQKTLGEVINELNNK
HOPS (homotypic fusion and protein sorting) complex, sequence (P12868 whole entry, chain 4 of 3, the tested form may be a part): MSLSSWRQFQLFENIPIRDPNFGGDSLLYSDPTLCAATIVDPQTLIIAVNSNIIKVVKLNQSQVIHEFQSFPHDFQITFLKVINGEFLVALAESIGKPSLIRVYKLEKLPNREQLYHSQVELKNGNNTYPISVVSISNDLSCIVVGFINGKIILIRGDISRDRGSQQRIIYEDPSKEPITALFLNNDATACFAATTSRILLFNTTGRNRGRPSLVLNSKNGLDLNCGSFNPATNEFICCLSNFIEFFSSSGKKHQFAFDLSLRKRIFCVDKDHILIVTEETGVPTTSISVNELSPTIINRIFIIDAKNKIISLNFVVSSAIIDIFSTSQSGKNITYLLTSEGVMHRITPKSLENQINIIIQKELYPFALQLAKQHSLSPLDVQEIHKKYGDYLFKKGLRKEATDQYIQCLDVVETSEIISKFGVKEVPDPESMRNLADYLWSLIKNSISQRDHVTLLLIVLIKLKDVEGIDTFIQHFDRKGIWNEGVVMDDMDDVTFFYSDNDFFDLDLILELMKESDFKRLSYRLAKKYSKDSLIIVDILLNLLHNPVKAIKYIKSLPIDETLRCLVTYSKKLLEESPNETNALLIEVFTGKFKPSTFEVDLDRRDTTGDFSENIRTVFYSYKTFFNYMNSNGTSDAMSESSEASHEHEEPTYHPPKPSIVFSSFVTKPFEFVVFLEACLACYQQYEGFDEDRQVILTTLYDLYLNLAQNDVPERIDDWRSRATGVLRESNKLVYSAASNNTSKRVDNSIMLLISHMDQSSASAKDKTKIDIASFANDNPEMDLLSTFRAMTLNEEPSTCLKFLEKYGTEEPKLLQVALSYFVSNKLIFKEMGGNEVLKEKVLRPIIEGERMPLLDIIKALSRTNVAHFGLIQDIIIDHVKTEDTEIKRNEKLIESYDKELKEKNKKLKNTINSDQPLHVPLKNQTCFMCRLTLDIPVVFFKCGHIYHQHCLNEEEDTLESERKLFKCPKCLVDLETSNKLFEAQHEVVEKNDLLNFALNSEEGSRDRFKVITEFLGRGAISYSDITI

For B1, the binding result in experiment [1], in experiment [2], in experiment [3] and in experiment [4] was “binds” each time.
B2: the binding result in experiment [5] is “binds”.
Consider B3, for which the binding result (with His-tagged Ykt6 (1-200); in experiment [6]; in experiment [7]) was “binds” each time.
